Tests used:
Format in all cases: cell-based
[1] = biological target: T1, GLP-1 receptor (GLP-1R) (Homo sapiens, UniProt P43220); experiment: GLP-1R activation, cAMP responsive luciferase reporter in HEK293 cells; conditions: HEK293 cells expressing GLP-1R, 24 h
T1 construct: expressed in transfected cells; host or cells: HEK293 cells expressing surface GLP-1R and a cAMP responsive luciferase reporter
Protocol: HEK293 cells expressing surface GLP-1R and cAMP responsive luciferase reporter gene were seeded in 384 well plates at a density of 5000 cells per well. […] Subsequently, luciferase assay was performed using One-Glo luciferase reagent according manufacture's instruction (Promega).
HEK293 cells expressing surface GLP-1R and cAMP responsive luciferase reporter gene were seeded in 384 well plates at a density of 5000 cells per well. After 24 h incubation at 37° C. with 5% CO2, cells were treated with various concentrations of peptides and BLV1H12-GLP-1 clip fusion proteins and incubated for another 24 h. Subsequently, luciferase assay was performed using One-Glo luciferase reagent according manufacture's instruction (Promega).

[2] = system: Human T cells; experiment: Inhibition of T cells activation (secreted TNF-α ELISA); conditions: T cells activated by anti-CD3 and CD28 antibodies, 24 h
Protocol: Human PBMCs were isolated from fresh venous blood of healthy donors through ficoll gradient centrifugation, followed by resuspension in RPMI1640 medium with 10% FBS and plating in 96-well plates at a density of 1×10^6 cells/mL. Human T cells were purified from the isolated PBMCs using T cell enrichment kit. Purified PBMCs and T cells were pretreated for 1 h at 37° C. with 5% CO2 with various concentrations of purified BLV1H12-Moka1 fusion antibodies and then activated by anti-CD3 and CD28 antibodies. After 24 h treatment, supernatant was collected for measurement of the levels of secreted TNF-α using ELISA kit.
Human T cells were purified from the isolated PBMCs using T cell enrichment kit. Purified T cells were pretreated for 1 h at 37° C. with 5% CO2 with various concentrations of purified BLV1H12-VM24 fusion antibodies and then activated by anti-CD3 and CD28 antibodies. After 24 h treatment, supernatant was collected for measurement of the levels of secreted TNF-a using ELISA kit. FIGS. 18B-C and Table 15 show the BLV1H12-VM24 fusion antibodies inhibitory activities on T cells activation.

[3] = system: TF-1 cells; experiment: Proliferation assay on TF-1 cells (AlamarBlue); conditions: 72 h
Protocol: TF-1 cells were obtained from American Type Culture Collection (ATCC), VA, and cultured in RPMI-1640 medium supplemented with 10% fetal bovine serum (FBS), penicillin, streptomycin and 2 ng/mL granulocyte-macrophage colony-stimulating factor (GM-CSF). For proliferation assay, TF-1 cells were washed three times with RPMI-1640 medium and resuspended in RPMI-1640 medium with 10% FBS and penicillin and streptomycin at a density of 1.5×10^5 cells/ml. Cells were plated in 96-well plates and treated with varied concentrations of BLV1H12-hEPO fusion antibodies. After 72 h of incubation at 37° C. with 5% CO2, cells viabilities were measured using AlamarBlue (Invitrogen) assay following manufacture's instruction. FIG. 21 and Table 18 show the proliferative activity of Ab-hEPO fusion antibodies on TF1 cells.

T1 sequence (P43220 24-463, species assumed): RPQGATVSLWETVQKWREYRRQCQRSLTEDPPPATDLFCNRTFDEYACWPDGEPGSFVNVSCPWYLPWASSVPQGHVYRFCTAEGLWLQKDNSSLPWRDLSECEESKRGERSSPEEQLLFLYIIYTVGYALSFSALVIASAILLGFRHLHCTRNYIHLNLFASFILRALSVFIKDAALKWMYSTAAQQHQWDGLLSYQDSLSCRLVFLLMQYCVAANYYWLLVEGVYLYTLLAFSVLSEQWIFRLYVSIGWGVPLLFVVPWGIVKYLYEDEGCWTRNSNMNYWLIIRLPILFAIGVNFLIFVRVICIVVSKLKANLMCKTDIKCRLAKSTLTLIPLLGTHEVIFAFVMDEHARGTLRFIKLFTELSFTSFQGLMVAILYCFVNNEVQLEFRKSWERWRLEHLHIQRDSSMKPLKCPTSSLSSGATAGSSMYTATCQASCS

Substance | RLU (luciferase reporter) ([1]; 1.26953 nM) | RLU (luciferase reporter) ([1]; 2.53906 nM) | RLU (luciferase reporter) ([1]; 5.07813 nM) | RLU (luciferase reporter) ([1]; 10.15625 nM) | RLU (luciferase reporter) ([1]; 20.3125 nM) | RLU (luciferase reporter) ([1]; 40.625 nM) | RLU (luciferase reporter) ([1]; 81.25 nM) | RLU (luciferase reporter) ([1]; 162.5 nM) | RLU (luciferase reporter) ([1]; 325 nM) | RLU (luciferase reporter) ([1]; 650 nM) | F.I. (secreted TNF-α, ELISA) ([2]; 0.45725 nM) | F.I. (secreted TNF-α, ELISA) ([2]; 1.37174 nM) | F.I. (secreted TNF-α, ELISA) ([2]; 4.11523 nM) | F.I. (secreted TNF-α, ELISA) ([2]; 12.34568 nM) | F.I. (secreted TNF-α, ELISA) ([2]; 37.03704 nM) | F.I. (secreted TNF-α, ELISA) ([2]; 111.11111 nM) | F.I. (secreted TNF-α, ELISA) ([2]; 333.33333 nM) | F.I. (secreted TNF-α, ELISA) ([2]; 1000 nM) | further results
Ab-Ex4(RN): BLV1H12-Ex-4 fusion antibody treated with Factor Xa protease to release N-terminal of Ex-4 | 128740 | 153820 | 163020 | 169360 | 161380 | 154920 | 163700 | 163860 | 164160 | 155700 | – | – | – | – | – | – | – | – | RLU (luciferase reporter) ([1]; 0.00248 nM): 24120; RLU (luciferase reporter) ([1]; 0.00496 nM): 26320; RLU (luciferase reporter) ([1]; 0.00992 nM): 28140; RLU (luciferase reporter) ([1]; 0.01984 nM): 33500; RLU (luciferase reporter) ([1]; 0.03967 nM): 34180; RLU (luciferase reporter) ([1]; 0.07935 nM): 48860; RLU (luciferase reporter) ([1]; 0.31738 nM): 80740; RLU (luciferase reporter) ([1]; 0.63477 nM): 117240; RLU (luciferase reporter) ([1]; 1300 nM): 168740
Ab-Ex4: Exendin-4 with Factor Xa cleavage site and GGGGS linkers grafted into BLV1H12 CDR3H; DNA SEQ ID NO: 8 | 6120 | 6360 | 8500 | 10420 | 19340 | 27960 | 54800 | 90660 | 117900 | 134760 | – | – | – | – | – | – | – | – | –
Ab-VM24 L1: Vm24 in BLV1H12 CDR3H, linker=GGGGS; DNA SEQ ID NO: 13 | – | – | – | – | – | – | – | – | – | – | 3427.004 | 3265.969 | 3499.82 | 3627.431 | 3575.4815 | 3085.439 | 1853.645 | 990.818 | –
Ab-VM24-L2: Vm24 in BLV1H12 CDR3H, first linker=GGGSGGGGS and second linker=GGGGSGGGS; DNA SEQ ID NO: 14 | – | – | – | – | – | – | – | – | – | – | 3156.626 | 3345.846 | 3518.316 | 3607.5755 | 3508.0475 | 3220.2475 | 2465.838 | 1306.0215 | –
Ab-hEPO: human EPO with GGGGS linkers grafted into BLV1H12 CDR3H; DNA SEQ ID NO: 10 | – | – | – | – | – | – | – | – | – | – | – | – | – | – | – | – | – | – | F.I. (AlamarBlue, cell viability) ([3]; 0.00236 nM): 4198.65; F.I. (AlamarBlue, cell viability) ([3]; 0.01178 nM): 4757.196; F.I. (AlamarBlue, cell viability) ([3]; 0.05888 nM): 5265.069; F.I. (AlamarBlue, cell viability) ([3]; 0.2944 nM): 6430.723; F.I. (AlamarBlue, cell viability) ([3]; 1.472 nM): 8963.889; F.I. (AlamarBlue, cell viability) ([3]; 7.36 nM): 10330.18; F.I. (AlamarBlue, cell viability) ([3]; 36.8 nM): 10776.73; F.I. (AlamarBlue, cell viability) ([3]; 184 nM): 10330.44; F.I. (AlamarBlue, cell viability) ([3]; 4.71E−04 nM): 4324.037; F.I. (AlamarBlue, cell viability) ([3]; 9.42E−05 nM): 4361.92

From patent publication US20140050720A1, “ULTRALONG COMPLEMENTARITY DETERMINING REGIONS AND USES THEREOF” (THE SCRIPPS RESEARCH INSTITUTE, priority 2012, published 2014)
